PMC8039031

Molecular target: CREPT (RPRD1B) (UniProt Q9NQG5)
Assay: co-IP
Conditions: reference: wild type; sites Y705

Substance: STAT3 (from UniProt P40763) Y705F
- binding against the reference: lost
